{"source": "the DeepSol protein solubility set", "data": [{"assay": "soluble on expression in E. coli; label from the status in PepcDB or PDB records", "values": [{"sequence": "MSLVMSDTLNSLQLGERPEGRTLLTASWVVGHKDGSHRLLKNGEVVFENGEILFVGHGFPGEVARRIDFGNALVSPGLIDLDALSDLDTTILGIDHHPGWAKGRVWPRSYVEAGPYEMYSAEELAFQKRFAFGQLLLNGITTAAPIASLFYRAWGETVAEFEAAADAAGELGLRVYLSPAFRSGGMVLEEPGRMFPVFDEERGFQGLKEAIAFIEKQSGRHGDLVRGMLAPDRVETSTLGLIERTDAAARELGCKFRLHMAQGVMEVDTVRKLHGSTAPVWLAKAGLLSERLIAPHATNATEEDLALYAENGVSIVHCPLVSSRGGSTLSSFSSCRKRGINIAMGTDTAPADMFMNLLVGLITCRINDGAPDQIRCADLFDAATLGGARALGRSDLGHLSSGARADIAVFDLDDAVMAPSVDPITTLVTGGSGKVTRAVFVDGRLSMRERQVAHIDMRRAREQAQAQFDRLIAKYPERSWANPPVSEIFPPSYQVEVAQHGEGHHHHHH", "soluble on expression in E. coli": "soluble"}, {"sequence": "MSLWPQMQYRQLQLAREKLLERLARKRNSTVITLIHRQESIGLFGIPVYRFISIEDSEEVLRAIRMAPKDKPIDLIIHTPGGLVLAATQIAKALKDHPAETRVIVPHYAMSGGTLIALAADKIIMDPHAVLGPVDPQLGQYPAPSIVRAVEKKGVDKVDDQTLILADVAEKAIRQVRDFIFNLLKDKYGEEKAKELAQVLTEGRWTHDYPITVEEAKKLGLNVSTDVPEEVYALMELYKQPIRQRGTVEFVPYPMKQEGKHEGHHHHHH", "soluble on expression in E. coli": "soluble"}, {"sequence": "MSLYCNLLKPIKIGNLELKNRVSFAPTSMGLKLEEKIKKFSDIAKSGVALITLGDVSIRPSFHKVAISLSDEDGVMKYKKIVDEIHNSGAKVSAQLFCSDYDVNLIKDTMKMGITSHDEIKKIMNDGVKDYITNMTKGEIKNIINLFKVTALNAKKAGFDMIQIHGDRLVGSFSSSIFNNRNDEYGGTCDNRSRFASEIISSIRDEVKDIPIDYKFAIRQENPHYGNAGVLLSEVEYFVKKFESLGVNSFHVTLANHSKLEDTIPTNNHPYFKDEGCFLYLADEVKKHTNLPVCGVGKLSSPDFIESIISNNRVDMVSMSRQLLADSNWLQKVKDGRVDEIKKCCYCNKKCADALQTRSQFGCILDEGHHHHHH", "soluble on expression in E. coli": "soluble"}, {"sequence": "MSLYLITNRKLCSEERYLEVIKESILSGVENIIIREKDLEYQELRKLYMKIKTKINCIDFQEQISDESLKTNINQKECRNKFKVNFIINSNIEFFEKVDCQGIHLPFKLFLNLIENKYNFNENKILGLSLHKVEEVDYLEKLIRNQNIKIDYITLSHIYETKCKEGLNPKGIELLKEAKKITDIKIIALGGILPSNVKETLKYCDDFAIMSTIMRSKDIKKTISNYNEKLNEGHHHHHH", "soluble on expression in E. coli": "not soluble"}, {"sequence": "MSLYNKVLIIDDHPVLRFAVRVLMEKEGFEVIGETDNGIDGLKIAREKIPNLVVLDIGIPKLDGLEVIARLQSLGLPLRVLVLTGQPPSLFARRCLNSGAAGFVCKHENLHEVINAAKAVMAGYTYFPSTTLSEMRMGDNAKSDSTLISVLSNRELTVLQLLAQGMSNKDIADSMFLSNKTVSTYKTRLLQKLNATSLVELIDLAKRNNLAEGHHHHHH", "soluble on expression in E. coli": "not soluble"}, {"sequence": "MSMEPTLQSILDQRSLRWIFVGGKGGVGKTTTSCSLAIQLAKVRRSVLLLSTDPAHNLSDAFSQKFGKEARLVEGFDNLYAMEIDPNGSMQDLLAGQTGDGDAGMGGVGVMQDLAYAIPGIDEAMSFAEVLKQVNSLSYETIVFDTAPTGHTLRFLQFPTVLEKALAKVSQLSGQYGSLLNGILGGSGTLPNGQTLSDVMEKLDSLRVTISEVNAQFKDERLTTFVCVCIPEFLSLYETERMIQELANYGIDTHCIVVNQLLFPKPGSDCEQCTARRRMQKKYLDQIEELYDEEFNVVKMPLLVEEVRGKERLEKFSEMLIKPFVPPEHHHHHH", "soluble on expression in E. coli": "soluble"}, {"sequence": "MSMLKPSGLKAPTKILKPGSTALKTPTAVVAPVEKTISSEKASSTPSSETQEEFVDDFRVGERVWVNGNKPGFIQFLGETQFAPGQWAGIVLDEPIGKNDGSVAGVRYFQCEPLKGIFTRPSKLTRKVQAEDEANGLQTTPASRATSPLCTSTASMVSSSPSTPSNIPQKPSQPAAKEPSATPPISNLTKTASESISNLSEAGSIKKGERELKIGDRVLVGGTKAGVVRFLGETDFAKGEWCGVELDEPLGKNDGAVAGTRYFQCQPKYGLFAPVHKVTKIGFPSTTPAKAKANAVRRVMATTSASLKRSPSASSLSSMSSVASSVSSRPSRTGLLTETSSRYARKISGTTALQEALKEKQQHIEQLLAERDLERAEVAKATSHVGEIEQELALARDGHDQHVLELEAKMDQLRTMVEAADREKVELLNQLEEEKRKVEDLQFRVEEESITKGDLETQTKLEHARIKELEQSLLFEKTKADKLQRELEDTRVATVSEKSRIMELEKDLALRVQEVAELRRRLESNKPAGDVDMSLSLLQEISSLQEKLEVTRTDHQREITSLKEHFGAREETHQKEIKALYTATEKLSKENESLKSKLEHANKENSDVIALWKSKLETAIASHQQAMEELKVSFSKGLGTETAEFAELKTQIEKMRLDYQHEIENLQNQQDSERAAHAKEMEALRAKLMKVIKEKENSLEAIRSKLDKAEDQHLVEMEDTLNKLQEAEIKKEKFAEASEEAVSVQRSMQETVNKLHQKEEQFNMLSSDLEKLRENLADMEAKFREKDEREEQLIKAKEKLENDIAEIMKMSGDNSSQLTKMNDELRLKERDVEELQLKLTKANENASFLQKSIEDMTVKAEQSQQEAAKKHEEEKKELERKLSDLEKKMETSHNQCQELKARYERATSETKTKHEEILQNLQKTLLDTEDKLKGAREENSGLLQELEELRKQAEKAKAAQTAEDAMQIMEQMTKEKTETLASLEDTKQTNAKLQNELDTLKENNLKNVEELNKSKELLTVENQKMEEFRKEIETLKQAAAQKSQQLSALQEENVKLAEELGRSRDEVTSHQKLEEERSVLNNQLLEMKKRESKFIKDADEEKASLQKSISITSALLTEKDAELEKLRNEVTVLRGENASAKSLHSVVQTLESDKVKLELKVKNLELQLKENKRQLSSSSGNTDTQADEDERAQESQQMIDFLNSVIVDLQRKNQDLKMKVEMMSEAALNGNGDDLNNYDSDDQEKQSKKKPRLFCDICDCFDLHDTEDCPTQAQMSEDPPHSTHHGSRGEERPYCEICEMFGHWATNCNDDETF", "soluble on expression in E. coli": "soluble"}, {"sequence": "MSNENHEELNDQLIVRREKVDTLREEGIDPFGEKFIRSISPEEIETKFADKSKEELEEAAIEVSVAGRIMTKRVKGKVGFTHIQDRFHQLQIYIRKDAIGEDAYAVFKLADLGDIIGIKGTIFRTNTGELSVKATEFTLLSKSLRPLPDKYHGLKDVEQRYRQRYLDLITNEESQNRFVMRSKILKYTRDYMDNQGFLEVETPVLHTIAGGAAAKPFITHHNALDMELYLRIALELHLKRLIVGGMDKVYEIGRVFRNEGTSTRHNPEFTMLESYAAYEDYEDVMDLVEGLVSTVCKQVNGTTEITYGEYKVDLTPNWRRIHMADAVKEYVGVDFWNVTSDEEARELAKKHDVPVTEHMTYGHILNEFFETYVEEKLIQPTFVYGHPVEISPLAKKNKEDERFTDRFELFIVGREHANAFSELNDPIDQRERFEAQMKEREQGNDEAHGMDADFLEALEYGLPPTGGLGIGIDRLVMLLTDAPSIRDILLFPTMKHRD", "soluble on expression in E. coli": "not soluble"}, {"sequence": "MSNGIVIIGSGFAARQLVKNIRKQDATIPLTLIAADSMDEYNKPDLSHVISQGQRADDLTRQTAGEFAEQFNLHLFPQTWVTDIDAEARVVKSQNNQWQYDKLVLATGASAFVPPVPGRELMLTLNSQQEYRACETQLRDARRVLIVGGGLIGSELAMDFCRAGKAVTLIDNAASILASLMPPEVSSRLQHRLTEMGVHLLLKSQLQGLEKTDSGIQATLDRQRNIEVDAVIAATGLRPETALARRAGLTINRGVCVDSYLQTSNTDIYALGDCAEINGQVLPFLQPIQLSAMVLAKNLLGNNTPLKLPAMLVKIKTPELPLHLAGETQRQDLRWQINTERQGMVARGVDDADQLRAFVVSEDRMKEAFGLLKTLPM", "soluble on expression in E. coli": "not soluble"}, {"sequence": "MSNHHSSCSSRTGGAHRRCDCTEDLTENDKLWNDFEGCAQAVARLYSDSSWRNFRGAAEGTTQLYKTSTDSYRRGFEKGFSSGCTSIAKEILQAFRDPSKIDMNIVLEVLYRNMAIPREERLTVNTQNGISSDTLAAVELFQQALNQPQVPPLSTLSLLPPTTREQTTDTLDEFLASQVQRHRKRQRSPNNSTTSPTSQMKRQRRL", "soluble on expression in E. coli": "soluble"}, {"sequence": "MSNNEIVFVTGNANKLKEVQSILTQEVDNNNKTIHLINEALDLEELQDTDLNAIALAKGKQAVAALGKGKPVFVEDTALRFDEFNGLPGAYIKWFLKSMGLEKIVKMLEPFENKNAEAVTTICFADSRGEYHFFQGITRGKIVPSRGPTTFGWDSIFEPFDSHGLTYAEMSKDAKNAISHRGKAFAQFKEYLYQNDF", "soluble on expression in E. coli": "not soluble"}, {"sequence": "MSNQYDPSQPVVFTDFSPKEGGMRTRLYIEGSNFGNDPTKIHITIGGEKTKTIGADGKKIYCMVPSKAFDGIINVRVDGPDGKPIAEHTFEEEFKYTPATIVGTLLRKVDEDNNSAFQEGSFDEGASIPSNDCMVFDPKYKDGDNRLLFSSNHSDGLHLIDLTERTVKRLFPRTGYSTMYSFTFSADGDTLLFTDDHGQDNTTRANIYYSLRRENFRRIRPYNYGRTAYSLVYMDDGTIFYTTWWEGKVYKMIRNGAIPNIDENAEVAFSLSQISAVGGSHTILFRHPSNKFMYMLSDNFGAVFRADYDPVAKTFGNPSIIAGNMNDKSFKEGTGGSARFNKPQFGVFVKNEKYGEGIGPDNDQYDFYFCDRENHCIWKLDPHGVASLAAGRSNENADGKIWGYVDGNPLHEARFNQPAGLAYDPDTDMFYIGDIDNKGIRYMTTELEHHHHHH", "soluble on expression in E. coli": "not soluble"}, {"sequence": "MSNSHHTSMRGNDMSDNIRVGLIGYGYASKTFHAPLIAGTPGLELAVISSSDETKVKADWPTVTVVSEPKHLFNDPNIDLIVIPTPNDTHFPLAKAALEAGKHVVVDKPFTVTLSQARELDALAKSLGRVLSVFHNRRWDSDFLTLKGLLAEGVLGEVAYFESHFDRFRPQVRDRWREQGGPGSGIWYDLAPHLLDQAITLFGLPVSMTVDLAQLRPGAQSTDYFHAILSYPQRRVILHGTMLAAAESARYIVHGSRGSYVKYGLDPQEERLKNGERLPQEDWGYDMRDGVLTRVEGEERVEETLLTVPGNYPAYYAAIRDALNGDGENPVPASQAIQVMELIELGIESAKHRATLCLA", "soluble on expression in E. coli": "soluble"}, {"sequence": "MSNVLIINAMKEFAHSKGALNLTLTNVAADFLRESGHQVKITTVDQGYDIESEIENYLWADTIIYQMPAWWMGEPWILKKYIDEVFTDGHGRLYQSDGRTRSDATKGYGSGGLIQGKTYMLSVTWNAPREAFTDPEQFFHGVGVDGVYLPFHKANQFLGMKPLPTFMCNDVIKQPDIEGDIARYRQHLAENVNS", "soluble on expression in E. coli": "not soluble"}, {"sequence": "MSPEQSPFHAGELAIQERAGVREQVAGFGSRAIRTFMPDQHREFFALLSLLLVGSLDADGYPSASVLWGPPGFARSPEPTRLRIDNLPQADDPLAANLEAGTRLGILGLEWPTRRRNRMNGRVLARDGKGFTVGVEQSFGNCPKYIQARSHQPVSRIASPALQGEGLDPRWLSLVSCSDTLFIASQHADPLRGGVDVSHRGGPPGFLRLGADGRLWLPDYAGNRLFNTLGNLLQDPRCGLLFIDFDNGDLLHLHAEAELFWPGSQPSIPWPAGAERLLALRPAGWRWRRGRLPLAFGEPQPSPFLPAGES", "soluble on expression in E. coli": "not soluble"}, {"sequence": "MSPGSVVVTGANRGIGLGLVQQLVKDKNIRHIIATARDVEKATELKSIKDSRVHVLPLTVTCDKSLDTFVSKVGEIVGSDGLSLLINNAGVLLSYGTNTEPNRAVIAEQLDVNTTSVVLLTQKLLPLLKNAASKESGDQLSVSRAAVITISSGLGSITDNTSGSAQFPVLAYRMSKAAINMFGRTLAVDLKDDNVLVVNFCPGWVQTNLGGKNAALTVEQSTAELISSFNKLDNSHNGRFFMRNLKPYEF", "soluble on expression in E. coli": "soluble"}, {"sequence": "MSPHPQPAPEPVIQYIASCKLPTPWGEFVMHGFEEESGQEHVALTLGEVGDGLPVLARLHSECLTGDALFSLRCDCGFQLEAAMEAISKAGRGALLYLRQEGRGIGLINKIRAYKLQDGGADTVEANERLGFPADMRDFRIARHMLAHLGIGSVKVMTNNPRKLATLEAAGIAVVERVPLQVGRNPYNDRYLDTKAAKLGHMLLKLEHHHHHH", "soluble on expression in E. coli": "soluble"}]}]}
